T1: G9a and GLP (Homo sapiens, UniProt Q96KQ7+Q9H9B1)
T1 sequence (Q96KQ7 2-1210 limits assumed): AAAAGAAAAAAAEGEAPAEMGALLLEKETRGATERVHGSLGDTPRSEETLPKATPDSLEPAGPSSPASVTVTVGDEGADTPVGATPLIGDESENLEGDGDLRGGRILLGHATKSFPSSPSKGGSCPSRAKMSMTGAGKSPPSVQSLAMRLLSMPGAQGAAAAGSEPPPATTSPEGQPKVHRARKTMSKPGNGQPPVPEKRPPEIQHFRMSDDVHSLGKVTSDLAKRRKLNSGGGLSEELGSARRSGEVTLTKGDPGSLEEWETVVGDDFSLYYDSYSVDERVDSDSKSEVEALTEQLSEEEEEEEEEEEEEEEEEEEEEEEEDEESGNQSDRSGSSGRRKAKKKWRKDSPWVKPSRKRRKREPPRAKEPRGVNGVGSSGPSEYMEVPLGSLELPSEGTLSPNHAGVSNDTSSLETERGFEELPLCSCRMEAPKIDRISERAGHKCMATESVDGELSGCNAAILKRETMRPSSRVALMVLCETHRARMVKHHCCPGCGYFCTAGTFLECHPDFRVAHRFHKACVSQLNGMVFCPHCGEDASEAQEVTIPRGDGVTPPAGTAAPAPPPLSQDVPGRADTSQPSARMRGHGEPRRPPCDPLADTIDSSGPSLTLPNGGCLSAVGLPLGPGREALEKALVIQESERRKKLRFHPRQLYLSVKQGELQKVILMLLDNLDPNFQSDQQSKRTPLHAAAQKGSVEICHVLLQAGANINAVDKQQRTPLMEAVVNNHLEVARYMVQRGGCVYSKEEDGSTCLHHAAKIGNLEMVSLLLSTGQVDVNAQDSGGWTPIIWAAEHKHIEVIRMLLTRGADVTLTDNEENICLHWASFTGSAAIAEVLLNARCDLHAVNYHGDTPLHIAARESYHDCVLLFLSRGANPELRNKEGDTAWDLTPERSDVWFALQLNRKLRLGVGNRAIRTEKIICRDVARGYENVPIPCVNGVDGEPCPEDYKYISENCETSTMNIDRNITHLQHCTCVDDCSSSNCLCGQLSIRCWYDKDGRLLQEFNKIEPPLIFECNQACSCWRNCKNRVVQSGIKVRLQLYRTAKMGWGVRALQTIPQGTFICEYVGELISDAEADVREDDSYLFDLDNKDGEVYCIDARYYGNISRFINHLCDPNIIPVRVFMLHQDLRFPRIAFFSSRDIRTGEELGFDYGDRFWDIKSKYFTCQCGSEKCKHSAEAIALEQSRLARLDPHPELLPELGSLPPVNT
T1 sequence (Q9H9B1 2-1298 limits assumed): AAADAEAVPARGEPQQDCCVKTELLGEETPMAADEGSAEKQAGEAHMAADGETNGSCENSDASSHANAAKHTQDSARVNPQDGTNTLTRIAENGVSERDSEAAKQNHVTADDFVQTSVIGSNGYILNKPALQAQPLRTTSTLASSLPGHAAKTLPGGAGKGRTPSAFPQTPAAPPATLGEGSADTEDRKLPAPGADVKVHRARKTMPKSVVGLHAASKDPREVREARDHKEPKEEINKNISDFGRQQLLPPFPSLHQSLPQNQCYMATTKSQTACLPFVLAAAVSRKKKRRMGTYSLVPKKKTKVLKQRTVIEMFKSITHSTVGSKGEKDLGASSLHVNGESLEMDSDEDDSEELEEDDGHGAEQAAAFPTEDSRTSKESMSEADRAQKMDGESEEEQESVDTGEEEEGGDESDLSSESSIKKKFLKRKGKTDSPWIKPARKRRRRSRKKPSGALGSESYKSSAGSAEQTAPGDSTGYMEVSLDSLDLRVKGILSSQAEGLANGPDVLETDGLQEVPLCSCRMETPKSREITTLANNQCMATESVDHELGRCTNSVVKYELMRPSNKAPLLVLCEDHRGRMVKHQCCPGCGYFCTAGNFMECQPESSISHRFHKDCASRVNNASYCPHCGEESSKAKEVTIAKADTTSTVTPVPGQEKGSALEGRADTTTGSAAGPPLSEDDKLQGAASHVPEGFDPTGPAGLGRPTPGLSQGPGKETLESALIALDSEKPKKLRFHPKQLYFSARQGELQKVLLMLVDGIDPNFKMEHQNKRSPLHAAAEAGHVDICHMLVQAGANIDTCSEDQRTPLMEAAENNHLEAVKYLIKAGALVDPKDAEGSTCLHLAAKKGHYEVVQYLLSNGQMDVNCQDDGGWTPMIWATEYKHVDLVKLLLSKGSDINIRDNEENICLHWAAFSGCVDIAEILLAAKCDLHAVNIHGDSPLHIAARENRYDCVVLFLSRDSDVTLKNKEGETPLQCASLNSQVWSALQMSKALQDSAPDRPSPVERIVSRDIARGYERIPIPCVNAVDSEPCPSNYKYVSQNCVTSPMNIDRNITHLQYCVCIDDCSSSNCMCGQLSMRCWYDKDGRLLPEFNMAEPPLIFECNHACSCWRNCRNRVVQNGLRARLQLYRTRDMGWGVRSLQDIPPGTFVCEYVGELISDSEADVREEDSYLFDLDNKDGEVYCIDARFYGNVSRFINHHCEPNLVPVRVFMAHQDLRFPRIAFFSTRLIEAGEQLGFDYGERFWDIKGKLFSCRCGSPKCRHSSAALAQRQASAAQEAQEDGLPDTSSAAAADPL


How the values were obtained:
[1] = molecular target: T1, G9a and GLP; test: Triple SILAC pull-down after UNC0638 treatment of 293T cells, DMSO/UNC0638 ratio of protein captured by 3×MBT; format: cell-based; set-up: endogenous in cells; host or cells: HEK 293T; conditions: for Relative to UNC0638 UNC Heavy / Relative to UNC0638 UNC Light: SILAC ratio DMSO/UNC0638 of protein pulled down with 3xMBT; for Relative to UNC0638 UNC Heavy: UNC0638 in heavy SILAC media; for Relative to UNC0638 UNC Light: UNC0638 in light SILAC media; for Relative to UNC0638 Average: average of UNC Light and UNC Heavy experiments;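 on all read-outs here: mass spectrometry (Q-Exactive) SILAC quantitation, DMSO/UNC0638 ratio computed after subtracting 3×MBTD355N mutant pull-down background, only proteins with at least twofold 3×MBT over mutant signal considered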
[2] = test system: 3×MBT domain of L3MBTL1; test: Triple SILAC pull-down, 3xMBT/3xMBTD355N ratio (cytoplasmic, nuclear and chromatin fractions of 293T cells); format: binding, human; conditions: SILAC ratio, pull-down 3xMBT vs 3xMBTD355N; for 3xMBT/D355N UNC Heavy: experiment with UNC0638 in heavy SILAC media; for 3xMBT/D355N UNC Light: experiment with UNC0638 in light SILAC media;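 on all read-outs here: proteins quantified with MaxQuant, requiring at least two unique peptides and quantification in both label directions, normalized to the mean of proteins from a digested loading control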

Row | Relative to UNC0638 UNC Heavy [1] [log base 2] | Relative to UNC0638 UNC Light [1] [log base 2] | Relative to UNC0638 Average [1] [log base 2] | Candidate G9a/GLP target ([1]; reduced association with 3xMBT after UNC0638 treatment) | Molecule | 3xMBT/D355N UNC Heavy [2] [log base 2] | 3xMBT/D355N UNC Light [2] [log base 2]
1 | −0.02 | 0.33 | 0.15 | – | ZNF326 (protein, UniProt Q5BKZ1 1-582, looked up) DBIRD complex subunit ZNF326: MDFEDDYTHSACRNTYQGFNGMDRDYGPGSYGGMDRDYGHGSYGGQRSMDSYLNQSYGMDNHSGGGGGSRFGPYESYDSRSSLGGRDLYRSGYGFNEPEQSRFGGSYGGRFESSYRNSLDSFGGRNQGGSSWEAPYSRSKLRPGFMEDRGRENYSSYSSFSSPHMKPAPVGSRGRGTPAYPESTFGSRNYDAFGGPSTGRGRGRGHMGDFGSIHRPGIVVDYQNKSTNVTVAAARGIKRKMMQPFNKPSGTFIKKPKLAKPMEKISLSKSPTKTDPKNEEEEKRRIEARREKQRRRREKNSEKYGDGYRMAFTCSFCKFRTFEEKDIELHLESSSHQETLDHIQKQTKFDKVVMEFLHECMVNKFKKTSIRKQQTNNQTEVVKIIEKDVMEGVTVDDHMMKVETVHCSACSVYIPALHSSVQQHLKSPDHIKGKQAYKEQIKRESVLTATSILNNPIVKARYERFVKGENPFEIQDHSQDQQIEGDEEDEEKIDEPIEEEEDEDEEEEAEEVGEVEEVEEVEEVREGGIEGEGNIQGVGEGGEVGVVGEVEGVGEVEEVEELEEETAKEEPADFPVEQPEEN | 3.01 | 6.59
2 | 0.14 | 0.17 | 0.15 | – | SYNCRIP (protein, UniProt O60506 2-623, looked up) Heterogeneous nuclear …: ATEHVNGNGTEEPMDTTSAVIHSENFQTLLDAGLPQKVAEKLDEIYVAGLVAHSDLDERAIEALKEFNEDGALAVLQQFKDSDLSHVQNKSAFLCGVMKTYRQREKQGTKVADSSKGPDEAKIKALLERTGYTLDVTTGQRKYGGPPPDSVYSGQQPSVGTEIFVGKIPRDLFEDELVPLFEKAGPIWDLRLMMDPLTGLNRGYAFVTFCTKEAAQEAVKLYNNHEIRSGKHIGVCISVANNRLFVGSIPKSKTKEQILEEFSKVTEGLTDVILYHQPDDKKKNRGFCFLEYEDHKTAAQARRRLMSGKVKVWGNVGTVEWADPIEDPDPEVMAKVKVLFVRNLANTVTEEILEKAFSQFGKLERVKKLKDYAFIHFDERDGAVKAMEEMNGKDLEGENIEIVFAKPPDQKRKERKAQRQAAKNQMYDDYYYYGPPHMPPPTRGRGRGGRGGYGYPPDYYGYEDYYDYYGYDYHNYRGGYEDPYYGYEDFQVGARGRGGRGARGAAPSRGRGAAPPRGRAGYSQRGGPGSARGVRGARGGAQQQRGRGVRGARGGRGGNVGGKRKADGYNQPDSKRRQTNNQNWGSQPIAQQPLQGGDHSGNYGYKSENQEFYQDTFGQQWK | 2.28 | 3.48
3 | −0.08 | 0.38 | 0.15 | – | SRP19 (protein, UniProt P09132 1-144, looked up) Signal recognition particle …: MACAAARSPADQDRFICIYPAYLNNKKTIAEGRRIPISKAVENPTATEIQDVCSAVGLNVFLEKNKMYSREWNRDVQYRGRVRVQLKQEDGSLCLVQFPSRKSVMLYAAEMIPKLKTRTQKTGGADQSLQQGEGSKKGKGKKKK | 1.88 | 2.14

Continued, molecule first:

Row | Molecule | Relative to UNC0638 UNC Heavy [1] [log base 2] | Relative to UNC0638 UNC Light [1] [log base 2] | Relative to UNC0638 Average [1] [log base 2] | Candidate G9a/GLP target ([1]; reduced association with 3xMBT after UNC0638 treatment) | 3xMBT/D355N UNC Heavy [2] [log base 2] | 3xMBT/D355N UNC Light [2] [log base 2]
4 | KIN (protein, UniProt O60870 1-393, looked up) DNA/RNA-binding protein KIN17: MGKSDFLTPKAIANRIKSKGLQKLRWYCQMCQKQCRDENGFKCHCMSESHQRQLLLASENPQQFMDYFSEEFRNDFLELLRRRFGTKRVHNNIVYNEYISHREHIHMNATQWETLTDFTKWLGREGLCKVDETPKGWYIQYIDRDPETIRRQLELEKKKKQDLDDEEKTAKFIEEQVRRGLEGKEQEVPTFTELSRENDEEKVTFNLSKGACSSSGATSSKSSTLGPSALKTIGSSASVKRKESSQSSTQSKEKKKKKSALDEIMEIEEEKKRTARTDYWLQPEIIVKIITKKLGEKYHKKKAIVKEVIDKYTAVVKMIDSGDKLKLDQTHLETVIPAPGKRILVLNGGYRGNEGTLESINEKTFSATIVIETGPLKGRRVEGIQYEDISKLA | 0.35 | −0.04 | 0.15 | – | 2.85 | 2.11
5 | API5 (protein, UniProt Q9BZZ5 2-524, looked up) Apoptosis inhibitor 5: PTVEELYRNYGILADATEQVGQHKDAYQVILDGVKGGTKEKRLAAQFIPKFFKHFPELADSAINAQLDLCEDEDVSIRRQAIKELPQFATGENLPRVADILTQLLQTDDSAEFNLVNNALLSIFKMDAKGTLGGLFSQILQGEDIVRERAIKFLSTKLKTLPDEVLTKEVEELILTESKKVLEDVTGEEFVLFMKILSGLKSLQTVSGRQQLVELVAEQADLEQTFNPSDPDCVDRLLQCTRQAVPLFSKNVHSTRFVTYFCEQVLPNLGTLTTPVEGLDIQLEVLKLLAEMSSFCGDMEKLETNLRKLFDKLLEYMPLPPEEAENGENAGNEEPKLQFSYVECLLYSFHQLGRKLPDFLTAKLNAEKLKDFKIRLQYFARGLQVYIRQLRLALQGKTGEALKTEENKIKVVALKITNNINVLIKDLFHIPPSYKSTVTLSWKPVQKVEIGQKRASEDTTSGSPPKKSSAGPKRDARQIYNPPSGKYSSNLGNFNYEQRGAFRGSRGGRGWGTRGNRSRGRLY | 1.12 | 0.31 | 0.71 | ✓ | 3.54 | 2.67
6 | HNRNPA0 (protein, UniProt Q13151 1-305, looked up) Heterogeneous nuclear …: MENSQLCKLFIGGLNVQTSESGLRGHFEAFGTLTDCVVVVNPQTKRSRCFGFVTYSNVEEADAAMAASPHAVDGNTVELKRAVSREDSARPGAHAKVKKLFVGGLKGDVAEGDLIEHFSQFGTVEKAEIIADKQSGKKRGFGFVYFQNHDAADKAAVVKFHPIQGHRVEVKKAVPKEDIYSGGGGGGSRSSRGGRGGRGRGGGRDQNGLSKGGGGGYNSYGGYGGGGGGGYNAYGGGGGGSSYGGSDYGNGFGGFGSYSQHQSSYGPMKSGGGGGGGGSSWGGRSNSGPYRGGYGGGGGYGGSSF | 0.02 | 0.28 | 0.15 | – | 2.94 | 3.80

Reference: patent publication US20140274782A1, “AFFINITY REAGENTS AND METHODS FOR DETECTION, PURIFICATION, AND PROTEOMIC ANALYSIS OF METHYLATED PROTEINS” (The Board of Trustees of the Leland Stanford Junior …, priority 2013, published 2014)
